Data: patent US20140086904A1 (CHENGDU KANGHONG BIOTECHNOLOGIES, published 2014)
Positions count from the first letter of the chain named.

B1: KS04 (antibody, human IgG1, kappa, V domains shown)
VH: QVQLVESGGGLVKPGGSLRLSCAASGFTFSNAWMNWVRQAPGKGLEWVAEIRSKSINSATHYAESVKGRFTISRDNSKKTLYLEMNSLRVEDTAVYYCSRNYYGSTYDYWGQGTTLTVSS
VL: EIVLTQSPDFQSVTPKEKVTITCRASQSIYSSLHWYQQKPDQSPKLLIKFASQSVSGVPSRFSGSGSGTDFTLTINSLEAEDAATYYCQQSHSWPFTFGSGTNVDIKR
B2: KS02 (antibody, human IgG1, kappa, V domains shown)
VH: B1 VH
VL: EIVLTQSPDFQSVSPKETVTITCRASQTVHMSLHWYQQKPNQSPRLLIKYGSQSFSGVPSRFSGSGSGTDFTLTINSLEPEDAATYYCQQSHSWPFTFGSGTNVDIKR
B3: KS08 (antibody, human IgG1, kappa, V domains shown)
VH: B1 VH
VL: B2 VL with S93F
B4: KS10 (Glu) (antibody, V domains shown)
VH: B1 VH with Q1E, N76D, K79N, L81V, E84Q, R89K, V90T
VL: B1 VL with S93W
notes: Full-length IgG1 from CHO cells; VH SH01 with the first amino acid Glu, VK SH08
B5: KS11 (antibody, human IgG1, kappa, V domains shown)
VH: B1 VH
VL: B2 VL with S93W
B6: KS12 (antibody, human IgG1, kappa, V domains shown)
VH: B1 VH
VL: B1 VL with S93W
B7: KS07 (antibody, human IgG1, kappa, V domains shown)
VH: B1 VH
VL: B1 VL with S93F
B8: KS-2E (Fab, V domains shown)
VH: B1 VH with D108Q
VL: B2 VL with S93K
notes: Humanized Fab (heavy chain Fd fragment and light chain), expressed in E. coli periplasm

How the values were obtained:
[1] = molecular target: T1, human tumor necrosis factor-α (R & D Co., Catalog Number: 210-TA-050) (human, UniProt P01375 77-233); assay: cell-based or functional assay
[2] = molecular target: T1, human tumor necrosis factor-α (R & D …); assay: BLI, Octet RED 96, biotin-hTNF-α on streptavidin sensor, antibody in solution
Method: hTNF-α (R & D Co., 210-TA-050) and NHS-LCLC-biotin (Catalog Number: 21338, purchased from Thermo-fisher Co.,) were mixed uniformly at a molar ratio of 1:3 and kept at room temperature for 1 hour. Then, the remaining NHS-LCLC-biotin was removed by a PD-10 desalting column (Catalog Number: 17-0851-01, purchased from GE Co.,). The final conjugate products obtained were 50 μg/ml of biotin-hTNF-α.

[3] = molecular target: T1, human tumor necrosis factor-α (R & D …); assay: ELISA, plate coated with human TNF-α, Fab titrated, anti-human C-Kappa-HRP
[4] = molecular target: T1, human tumor necrosis factor-α (R & D …); assay: cell-based or functional assay; remark: listed apart in the source

T1 sequence (P01375 77-233 limits assumed): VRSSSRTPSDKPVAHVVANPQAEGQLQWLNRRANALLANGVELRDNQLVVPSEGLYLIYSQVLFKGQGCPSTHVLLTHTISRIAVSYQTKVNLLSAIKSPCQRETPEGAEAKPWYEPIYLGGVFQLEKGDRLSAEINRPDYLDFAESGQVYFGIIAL

Binder	EC50, L929 cytotoxicity experiment [1] [nM]	also measured
B1	0.126	–
B2	0.109	–
B3	0.113	–
B4	0.028	Kd [2]: 2.18 pM; koff [2]: 1.02e-07 s⁻¹; kon [2]: 46900 M⁻¹ s⁻¹
B5	0.059	–
B6	0.136	–
B7	0.1	–
B8	–	EC50 [3]: 6.66 nM; EC50 (read off the curve); L929 cytotoxicity assay, inhibition rate (%) [4]: ~4 nM
